We go through 1 molecule from patent publication US20240115693A1 (CHILDREN S MEDICAL CENTER, published 2024).

In the assay the target is T1, recombinant human ACE2 (hACE2-Fc, InvivoGen) (human, UniProt Q9BYF1 18-740).
T1 construct: not shown: Fc part of a bought reagent
The assay is described as follows: ELISA, LuS-Tag coated, hACE2-Fc titrated.

T1 sequence (Q9BYF1 18-740): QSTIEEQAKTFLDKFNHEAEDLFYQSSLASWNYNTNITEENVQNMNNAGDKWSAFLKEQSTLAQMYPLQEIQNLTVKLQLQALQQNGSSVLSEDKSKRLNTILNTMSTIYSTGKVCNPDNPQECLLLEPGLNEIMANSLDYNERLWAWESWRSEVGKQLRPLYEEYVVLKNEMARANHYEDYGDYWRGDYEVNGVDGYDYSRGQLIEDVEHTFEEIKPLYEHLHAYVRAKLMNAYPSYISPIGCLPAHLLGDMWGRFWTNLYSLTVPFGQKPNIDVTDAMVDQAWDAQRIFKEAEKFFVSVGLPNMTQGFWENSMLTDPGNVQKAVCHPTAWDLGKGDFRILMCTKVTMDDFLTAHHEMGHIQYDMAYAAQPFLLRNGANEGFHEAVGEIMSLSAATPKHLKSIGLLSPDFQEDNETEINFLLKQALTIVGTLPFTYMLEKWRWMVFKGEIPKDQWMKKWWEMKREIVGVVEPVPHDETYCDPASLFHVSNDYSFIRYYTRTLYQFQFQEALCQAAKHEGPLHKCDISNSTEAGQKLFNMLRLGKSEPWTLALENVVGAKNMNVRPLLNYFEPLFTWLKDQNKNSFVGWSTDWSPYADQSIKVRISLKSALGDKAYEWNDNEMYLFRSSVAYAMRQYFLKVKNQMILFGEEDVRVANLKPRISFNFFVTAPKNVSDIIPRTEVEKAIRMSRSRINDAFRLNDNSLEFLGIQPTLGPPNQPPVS

B1: Lumazine synthase expressing SpyTag (LuS-Tag) (other)
chain: AHIVMVDAYKPTKMQIYEGKLTAEGLRFGIVASRFNHALVDRLVEGAIDCIVRHGGREEDITLVRVPGSWEIPVAAGELARKENIDAVIAIGVLIRGATPHFDYIASEVSKGLANLSLELRKPITFGVITADTLEQAIERAGTKHGNKGWEAALSAIEMANLFKSLR
As to B1, the binding result is listed as “no binding (tested: starting at 10 µg/ml)”.
